Measured values published in the DeepSol protein solubility set.

test: soluble on expression in E. coli; label from the status in PepcDB or PDB records

| Sequence | soluble on expression in E. coli |
| --- | --- |
| MAKGDPKKPKGKMSAYAFFVQTCREEHKKKNPEVPVNFAEFSKKCSERWKTMSGKEKSKFDEMAKADKVRYDREMKDYGPAKGGKKKKDPNAPKRPPSGFFLFCSEFRPKIKSTNPGISIGDVAKKLGEMWNNLNDSEKQPYITKAAKLKEKYEKDVADYKSKGKFDGAKGPAKVARKKVEEEDEEEEEEEEEEEEEEDE | soluble |
| MGSDKIHHHHHHMQILTVQMNIAGEWRDVAVVGFYAPEKGTGGPCVLNYDIEHVTSYFHQFAQTAVSVSLPVDNIPLRSPHWHRFLEDIMPAGSSRDYWVKRLGLQDMPNLERDFQLLKYGTIAPIGNLRIKESVPEKAKKSLPVTFSIADVSELQIDFIEYAQSRGAAAGGASGAGGAAPKLLVRLNEQQGVWIDTFQDDPRNLDQPYLVKFPRGKTTLDSDILRAEYHFYHELTQLGFETISVESMKLIEVERGPSLWLPRFDYGVEAGAMVSYGMESVYAILGEPTAKPLLHADVIRRLLAEFNKKENYGNTRTPLDVEAGLEGKSGIEAFVVEWVRRDLLNIAFGNSDNHGRNTSFIKHGNRVQLAPIYDFAPMKADYEMITRTFTWGEGMELGGVYNFPAIAEHLSDLLSPNDLMSALNETAVRLLGLELRLRQRGVPESILAHSGIGFATLEARMQQWGLL | not soluble |
| MFKKFTREDVHSRSKVKSSIQRTLKAKLVKQYPKIEDVIDELIPKKSQIELIKCEDKIQLYSVDGEVLFFQKFDELIPSLKLVHKFPEAYPTVQVDRGAIKFVLSGANIMCPGLTSAGADLPPAPGYEKGTIVVINAENKENALAIGELMMGTEEIKSVNKGHSIELIHHLGDPLWNFSVE | not soluble |
| MPNNISKSAIIKEGVIIGENVTIEDNVYIDYGCIIRDNVHIKKGSFIGARSILGEYLVDFYNDRINKKHPLIIGENALIRTENVIYGDTIIGDNFQTGHKVTIRENTKIGNNVKIGTLSDIQHHVYIGNYVNIHSNVFVGEKSIIKDFVWLFPHVVLTNDPTPPSNELLGVTIELFAVIAARSVVLPGIHINEDALVGAGAVVTKDVPKETVVVGNPAREICSIRKIKNKITGEQVYPWRYTFKRGMPWEETDYDTWIKNISIENLEHHHHHH | soluble |
| MRIMASHDTPVSPAGILIDLDGTVFRGNELIEGAREAIKTLRRMGKKIVFLSNRGNISRAMCRKKLLGAGIETDVNDIVLSSSVTAAFLKKHYRFSKVWVLGEQGLVDELRLAGVQNASEPKEADWLVISLHETLTYDDLNQAFQAAAGGARIIATNKDRSFPNEDGNAIDVAGMIGAIETSAQAKTELVVGKPSWLMAEAACTAMGLSAHECMIIGDSIESDIAMGKLYGMKSALVLTGSAKQGEQRLYTPDYVLDSIKDVTKLAEEGILILEHHHHHH | not soluble |
| MSLKPFGLFAICVAFAGCGDTSWWSKNDDPELKSEQIRKLIPSRVHDRQSWANDINDIMEKLKIPKTKDNVCSVVAIVDQESNFVANPVVAGLGEKAVKEVSTRLNEKFEEKLGTTIGGQVAGYFEDVLKNQPTPDDNYMSQMRRVRTEKDLDVLYRQIFDYMASHYHVSALTGAAKLVGQDIAEKMNPITTLGSMQVNIVYAKENKRVKLQSVNNLRDDLYTQYGGLYYGIHRLMLYQTSYDKPIYRFADYNSGMYSSRNAALQSMLNKLGDEQLTEDGDLLLYNKDGSIQSTRSSSEKALIKIFTLNNVLLTPNQIRTDLKQEKSQSFEQTPTYIAITKLYQKQTGKEAPYAMMPQVIISGPKLSRDYNTNWYASRVNGRYQTCMQRAKRIKEGHHHHHH | soluble |
| MGSDKIHHHHHHMSALYQALPAVDKLLKTPQGEQLVAEFGHSATVNMCRDLLQQAREHIKRHENLPHFLQNTDATFQHLKEQLLLQQQVNIKTVHNLTGTVLHTNLGRALWSPAAQQAALDAMQGNVALEYDLSAGERSHRDNYISALMQQLTGAEAACVVNNNAAAVLLMLATFAQGKEVIISRGELIEIGGAFRIPDIMAQAGCKLVEVGTTNRTHLKDYRNAINENTAFLMKVHSSNYQICGFTHSVDEQELADLGKEFGIPVITDLGSGALMDLKQFGLPEEPTVQEKLQHGVDLISFSGDKLLGGPQAGIIVGKKALIQQLQAHPLKRVLRCDKVTLAGLEATFRLYLQPEKITEKLTALLLLTQPMERLQAQAEQLKVRLENRLNTNYVIAIEPSEAQIGSGSQPLARIPSVAVTIAPASEKTPAKTTALFARLLALPQPVIGRIERDKIWLDLHSLASLDRLLNSLETL | not soluble |
| MGLIKAATSSVGGGLADQWLEVIEPDNMGDTTVMTKGVFVRKDDKRGSNRKGTDDVLTDGSVVHVYPNMMMLLVDGGKIIDYTAEEGYYTVKNDSAPSMFNGSLKDAIAETFSRFKFGGVTPQKQQVFYINLQEIKGIKFGTPAPLNYFDNFYNAELFLRAHGNYSIKITDPLLFYTNAIPKNQTQVDINDINEQYLAEFITALQAAINQMSADGQRISYVPSKSVELSKYMQTALDEDWRTNRGMEIVSVAVASISYTDDSTKLINMRNEGAMLSDPGVREGYVQGSLARGMEAAGKNEGGAMSGFMGVGMGMNANGNYFAQASQTNQQQMQEKQNQQNAQGATDTWTCPQCGTENTGKFCSNCGTPKPTNEKPKLEMKCSECSEIVDLSNGIPKFCPHCGKPFQGVPL | not soluble |
| MGSDKIHHHHHHMMIHGFQSSHQDFSFGPWKLTASKTHIMKSADVEKLADELHMPSLPEMMFGDNVLRIQHGSGFGIEFNATDALRCVNNYQGMLKVACAEEWQESRTEGEHSKEVIKPYDWTYTTDYKGTLLGESLKLKVVPTTDHIDTEKLKAREQIKFFEEVLLFEDELHDHGVSSLSVKIRVMPSSFFLLLRFFLRIDGVLIRMNDTRLYHEADKTYMLREYTSRESKIANLMHVPPSLFTEPNEISQYLPIKEAVCEKLVFPERIDPNPVDSQSTPSE | not soluble |
| SLSERVRTYWIIIELKHKAREKPYDSKSLRTALQKEITTRYQLDPKFITSILYENNVITIDLVQNSSQKTQNDVDIADVAYYFEKDVKGESLFHSKKMDLTVNGEQLDLDPGQTLIYYVDEKAPEFSEG | soluble |
| CSEPYEGKVAVASVILNRLQNPEFPKSIGDVIKQKYAFSCIRDGKIEVTPNQECYNAVMDALHGKDPTPKAMYFYNPRISTSSWMNNIQKENVKVIGNHVFFKTYKE | not soluble |
| MEKLGLEHVCGDLNTEVEHGFTCDLLSEVLGKAQPSTLWITVQSHVNIIAVATVVGIKGIVLCDGHEYEKDTVKKAEENGVVLLKSQENSFIVSGKVYELGLRLEHHHHHH | not soluble |
| MSLELKNKKIVVTGGTSGIGLAFAKKLAAIDNQIIIGSRSKEKITEVVKDNKNISGYQVDVSDQESVERFYKQTISEFKNIDIVINSAGIMRHYNLLDEKTTSQKLQAEIQTNLIGTINIDKIFLPILRKQAESMIVNISSGLANLSSAAHPIYSATKAGVHMFTDALREQLHFAGEDHIHIVELVPPLVAETNLEKDVNSQNTPLNIKLSDLINEAIQGIEENSIRINAGMAKEMRKMGQTDPDKNEREMATMMIPMYFPDGLKEGHHHHHH | not soluble |
| AEDRSLQAEPWFFGAIKRADAEKQLLYSENQTGAFLIRESESQKGDFSLSVLDEGVVKHYRIRRLDEGGFFLTRRKVFSTLNEFVNYYTTTSDGLCVKLEKPCLKIQV | soluble |
| GPGSMSTSAYRVASLLRQENNKLCSDKEKNTLARLTRDVEAFLDHAADVPPVVMETPYDDGETDLMEVHLSVVAGVLEPCEPASDVTAVDGVFMPTAKNHVAMDRKRVREAQAMLNLLGALSTDCNMPTASVAAATRCRLSLGSGEKADFESDDESIAVFDADELENDTSSSDGESNVHGRPPPRILELN | soluble |
| MSLEFANFDSDLQYFLFQHIAVLLTANTKYRRALLLYGGAKNGKSVFINLVRSFFYSEDIVSKALNELQGRFDKESLVGKKLMASDEIGESRIQEKIVNDLKKLVSVEPVHVDRKGKTQVETTLDLKLAFGTNARLNFPSAHAKALERRIAVIPCEYYVEKADPDLIEKLQDEKKEIFLYLMYVYKQIVKNDIEYLQNDRVTEISHDWLNFGYEFVSSKSASIANQKACINLLRKLIEIKPGSRIKVSELNKVINEEIKVSSQVIKQLIQANFDTQTKLYNGYDYWIDLGWKEADKKEIHDISKKDNIISLDKNENITDDETLDEENLDFDWEDFDDEGHHHHHH | not soluble |
| MDAEQLLKAITPEVYDRLVYAVETGRWPEGTTLSREQRDSCMQAVMLYQSKHNTEAQHMTVAAGGEISFKSKQELKKQFNTDESDIVRVNPNLD | not soluble |
| MSYVIDRRLNGKNKSTVNRQRFLRRYREHIKKAVEEAVSRRSITDMEHGEQISIPGRDIDEPVLHHGRGGRQTVVHPGNKEFTAGEHIARPSGGGGGRGGGKASNSGEGMDDFVFQITQEEFLDFMFEDLELPNLVKRHITGTDTFKTVRAGISNDGNPSRINIVRTLRSAHARRIALSGGSRAKLRAALKELERIKREEPDNLGDIQELELEIAKLRARIDRVPFLDTFDLKYNLLVKQPNPTSKAVMFCLMDVSGSMTQATKDIAKRFFILLYLFLKRNYEKIEVVFIRHHTSAREVDEEEFFYSRETGGTIVSSALKMMQEIMAERYPTHEWNIYAAQASDGDNWNDDSPVCRDILLKQIMPFVQYYTYVEITPREHQALWFEYERVREAFEDSFAQQQIVSASDIYPVFRELFQRRLVAKLAAALEHHHHHH | not soluble |
| MSPKARWQFWIDRGGTFTDIVARSPDGKLITHKLLSEDPAHYEDAAMHGIRQILGLSENEPFPSEDVEAIKMGTTVGTNALLERKGERIVLVITKGFGDALRIGYQNRPDIFSQKIELPDQLYERVIEVSGRYSADGEEIVPLELESAKKELEEAYKAGIRSAAVILMHSYRYPEHELMLGRLATEIG | not soluble |
| MGSDKIHHHHHHMTSILPLPDPQPSDATNTDTSSLNWEEELDSAIFSFEDIQAELNYKQAQSALRNLVGNIDLSSQEKAGLESEIADLETMLGKLDSMVVQIAAFGMVGRGKSSLLNALVGESVFETGPLHGVTRAAQRVNWRISEEAIGETERALRVTLPSVGRSQVELIDTPGLDEIDGETRTALAEQIAKQADLILFVISGDMTKIEHEALSQLREAGKPIILVFNKVDQYPEADRMAIYQKIRDERVRELLTPLEIVMAAASPLVKTAVRRPDGSRGVQVRTGNAQVAELQVKILEILQREGKALVALNTMLFADNVNEQLVQRKLMIREQNANQLIWKAVMTKAVAIALNPVTVVDILSSIVIDVSLILGLSKLYGIPMTEAGAVQLLQKIALSMGGIGVSELLANLGLSGLKTLLGISATATAGVAIGPYISVALTQAGVAGVSSYAIGQVTTVYLANGATWGPDGPKAVINRILSTLDENSILNRIKDELQVKLRRE | not soluble |
| MSLGHAKEVKIGVILGFTGPIESLTPSMADGAELAMKEVTDSGLLLDGATVTSVRADSTCVDAAAATAAAERLVTSDKVDGIMGADCSGVTGAILSNVAVPNGVVMISPSATSPALSTADDNGLFFRTAPSDARQGVVMTEVLMEEGIKEVALTYTNNDYGKGLADSFQAAFEAAGGTVTISAAHEDGKADYSAEVGALAAAGGDRLVVAGYVDQGGSGIVRSAIDSGAFDTFHFPDGMIGAKLEENFGDEIEGSSGQHPGTDSPGVAKFSEMVGGAFDSTSPFTPEAYDAAALIMLAMQAANSKDSGDYKDHVMHVANAPGEKIYPGELAKALQIIKDGGEVDYVGATAVELIGPGESAGNYRQITIEGGKITTAKFREGHHHHHH | soluble |
| MDYRFGRQYRLLKTDDFSSVFAFRNRRSRDLLQVSRSNGNGLGHPRIGLVVGKKTAKRANERNYMKRVIRDWFRLNKNRLPPQDFVVRVHRKFDRATAKQARAELAQLMFGNPATGCRKQA | not soluble |
